In publication PMC5447866 (Oncogene, 2016):

Molecular target: His6-tagged UBR5 recombinant protein (UniProt O95071 1-2799)
Experiment: pull-down

His6-tagged UBR5 recombinant protein, sequence (O95071 whole entry): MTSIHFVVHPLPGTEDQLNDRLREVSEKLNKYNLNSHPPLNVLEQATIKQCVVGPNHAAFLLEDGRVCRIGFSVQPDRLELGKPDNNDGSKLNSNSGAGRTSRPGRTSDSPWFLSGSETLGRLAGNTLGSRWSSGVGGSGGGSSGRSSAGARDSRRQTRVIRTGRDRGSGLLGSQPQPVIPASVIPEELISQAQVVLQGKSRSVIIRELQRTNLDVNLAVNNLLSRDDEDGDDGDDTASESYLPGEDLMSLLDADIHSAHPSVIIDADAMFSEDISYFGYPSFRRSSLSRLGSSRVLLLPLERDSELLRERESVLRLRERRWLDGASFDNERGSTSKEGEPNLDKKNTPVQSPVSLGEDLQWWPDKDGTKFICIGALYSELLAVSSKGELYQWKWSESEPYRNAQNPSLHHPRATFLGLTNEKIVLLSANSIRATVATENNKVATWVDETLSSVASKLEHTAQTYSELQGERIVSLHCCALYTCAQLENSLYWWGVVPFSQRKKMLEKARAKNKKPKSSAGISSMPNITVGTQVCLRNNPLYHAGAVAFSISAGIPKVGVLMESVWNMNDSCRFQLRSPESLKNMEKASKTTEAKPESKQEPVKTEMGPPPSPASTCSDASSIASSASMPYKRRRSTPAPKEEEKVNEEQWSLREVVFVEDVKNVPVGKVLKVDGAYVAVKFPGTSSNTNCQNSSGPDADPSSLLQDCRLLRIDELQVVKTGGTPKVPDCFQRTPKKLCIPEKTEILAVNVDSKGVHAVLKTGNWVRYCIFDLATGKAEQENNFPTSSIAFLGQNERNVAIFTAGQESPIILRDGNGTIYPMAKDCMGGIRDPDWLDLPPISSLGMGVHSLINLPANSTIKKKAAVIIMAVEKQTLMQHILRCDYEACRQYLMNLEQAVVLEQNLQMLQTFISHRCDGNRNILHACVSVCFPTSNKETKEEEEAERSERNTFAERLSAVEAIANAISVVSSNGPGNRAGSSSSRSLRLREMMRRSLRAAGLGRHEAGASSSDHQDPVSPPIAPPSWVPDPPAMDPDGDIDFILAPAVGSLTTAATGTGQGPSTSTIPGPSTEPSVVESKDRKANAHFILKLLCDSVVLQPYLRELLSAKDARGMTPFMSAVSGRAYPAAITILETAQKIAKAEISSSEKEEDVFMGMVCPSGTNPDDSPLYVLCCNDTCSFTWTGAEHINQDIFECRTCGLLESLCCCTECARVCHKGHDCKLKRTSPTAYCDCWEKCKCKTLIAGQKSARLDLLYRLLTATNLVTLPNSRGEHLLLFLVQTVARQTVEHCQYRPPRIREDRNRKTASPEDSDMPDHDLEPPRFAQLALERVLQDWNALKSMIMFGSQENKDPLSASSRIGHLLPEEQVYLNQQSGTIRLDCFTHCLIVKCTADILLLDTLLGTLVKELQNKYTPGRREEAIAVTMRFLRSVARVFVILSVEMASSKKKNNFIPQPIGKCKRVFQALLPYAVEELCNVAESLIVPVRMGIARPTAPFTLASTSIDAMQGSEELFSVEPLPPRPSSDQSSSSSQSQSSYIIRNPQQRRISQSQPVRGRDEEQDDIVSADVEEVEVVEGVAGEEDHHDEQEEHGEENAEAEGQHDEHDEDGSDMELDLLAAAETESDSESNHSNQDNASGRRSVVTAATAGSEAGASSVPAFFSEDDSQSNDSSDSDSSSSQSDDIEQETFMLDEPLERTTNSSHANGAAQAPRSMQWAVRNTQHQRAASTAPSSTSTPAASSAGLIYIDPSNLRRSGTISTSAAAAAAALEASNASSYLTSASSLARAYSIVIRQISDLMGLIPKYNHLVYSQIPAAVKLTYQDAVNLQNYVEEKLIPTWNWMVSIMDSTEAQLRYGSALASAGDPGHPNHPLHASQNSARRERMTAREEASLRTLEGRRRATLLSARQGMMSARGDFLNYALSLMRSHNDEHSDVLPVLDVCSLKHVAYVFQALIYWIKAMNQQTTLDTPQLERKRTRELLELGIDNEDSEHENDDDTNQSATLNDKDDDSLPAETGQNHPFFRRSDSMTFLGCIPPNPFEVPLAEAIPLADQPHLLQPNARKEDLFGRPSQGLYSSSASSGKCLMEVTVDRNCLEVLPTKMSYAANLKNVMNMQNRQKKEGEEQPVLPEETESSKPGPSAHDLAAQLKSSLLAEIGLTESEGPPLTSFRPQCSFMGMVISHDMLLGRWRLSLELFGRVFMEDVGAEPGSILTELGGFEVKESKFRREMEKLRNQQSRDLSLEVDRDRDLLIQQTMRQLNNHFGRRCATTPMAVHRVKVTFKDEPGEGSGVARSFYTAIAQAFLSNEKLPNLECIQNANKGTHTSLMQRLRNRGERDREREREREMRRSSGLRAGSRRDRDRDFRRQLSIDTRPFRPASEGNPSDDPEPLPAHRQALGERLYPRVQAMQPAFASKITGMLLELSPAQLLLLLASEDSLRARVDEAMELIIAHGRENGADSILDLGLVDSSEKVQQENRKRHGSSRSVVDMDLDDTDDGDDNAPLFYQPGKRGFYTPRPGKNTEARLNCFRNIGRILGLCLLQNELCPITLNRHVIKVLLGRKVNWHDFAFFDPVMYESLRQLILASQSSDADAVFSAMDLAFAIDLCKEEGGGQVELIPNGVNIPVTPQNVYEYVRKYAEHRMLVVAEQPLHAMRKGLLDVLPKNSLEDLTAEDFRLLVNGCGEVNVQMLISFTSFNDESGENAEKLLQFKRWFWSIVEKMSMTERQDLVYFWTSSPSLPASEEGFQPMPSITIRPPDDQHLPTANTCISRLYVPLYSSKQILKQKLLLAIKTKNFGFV

binding result: binds
B1: GST-tagged MOAP-1 recombinant protein (natural protein, UniProt Q96BY2 1-351, looked up)
chain: MTLRLLEDWCRGMDMNPRKALLIAGISQSCSVAEIEEALQAGLAPLGEYRLLGRMFRRDENRKVALVGLTAETSHALVPKEIPGKGGIWRVIFKPPDPDNTFLSRLNEFLAGEGMTVGELSRALGHENGSLDPEQGMIPEMWAPMLAQALEALQPALQCLKYKKLRVFSGRESPEPGEEEFGRWMFHTTQMIKAWQVPDVEKRRRLLESLRGPALDVIRVLKINNPLITVDECLQALEEVFGVTDNPRELQVKYLTTYQKDEEKLSAYVLRLEPLLQKLVQRGAIERDAVNQARLDQVIAGAVHKTIRRELNLPEDGPAPGFLQLLVLIKDYEAAEEEEALLQAILEGNFT
